Target: the molecule itself
Experiment: western blot of BHK media, reducing (29 kDa) against non-reducing (49 kDa) conditions
Experimental: Following selection for stable cell transfectants, media isolated from pools was analyzed by western blot under reducing and non-reducing conditions using a Ztgfβ-9 antibody or an anti-EE epitope tag antibody. […] Under non-reducing conditions, Ztgfβ-9 protein migrated as at 49 kDa species. […] C-terminal EE tagged human Ztgfβ-9 expressed in BHK cells was also anti-EE affinity purified and its N-terminal sequence determined.

B1: Human Ztgfβ-9 protein (ligand)
chain: AGAPRAGRRPARPRGCADRPEELLEQLYGRLAAGVLSAFHHTLQLGPREQARNASCPAGGRPADRRFRPPTNLRSVSPWAYRISYDPARYPRYLPEAYCLCRGCLTGLFGEEDVRFRSAPVYMPTVVLRRTPACAGGRSVYTEAYVTIPVGCTCVPEPEKDADSINSSIDKQGAKLLLGPNDAPAGP
notes: also called transforming growth factor beta-9
Q: Does B1 bind?
A: Result: binds

Reference: patent US20100313281A1 (published 2010)
